From PMC8490722 (Frontiers in Immunology, 2021) come the findings set out here.

The experiment addresses T1, SARS-CoV S1 subunit (SARS-CoV WH20 (AAX16192.1), UniProt Q5DIC5).
T1 construct: source: bought: Sino Biological
Kind of experiment: western blotting. Conditions: one partner purified. For orientation: A western blot detects proteins with antibodies after separation by electrophoresis.

B1: mAb 12C10 (antibody, V domains shown)
VH: EVKLQESGGGLVKPGGSLKLSCAASGFTFSNYSMSWVRQTPEKRLEWVATISNGGGYIYYLDSVKGRFTISRDNAKNTLYLQMSSLRSEDTAMYYCGRPRPEKEFISTSTAMDHWGQGTTVT
VL: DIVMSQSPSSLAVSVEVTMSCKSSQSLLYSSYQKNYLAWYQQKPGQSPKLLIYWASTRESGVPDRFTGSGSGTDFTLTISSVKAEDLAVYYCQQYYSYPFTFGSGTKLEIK
notes: also called anti-R405; source: mouse hybridoma; supernatants or ascites fluid
B1: the binding result is “binds”.
